According to paper PMC8135044, “Lytic transglycosylase MltG cleaves in nascent peptidoglycan and produces short glycan strands” (The Cell Surface, 2021):

Target: T1, BsPBP2B (Bacillus subtilis, UniProt Q07868 1-713)
T1 construct: Not pulled down by Ni-NTA beads alone; also called class B PBP2B; source: E. coli BL21 (DE3), purified from membranes (Ni-NTA, thrombin, HiTrap SP ion exchange)
T1 sequence (looked up): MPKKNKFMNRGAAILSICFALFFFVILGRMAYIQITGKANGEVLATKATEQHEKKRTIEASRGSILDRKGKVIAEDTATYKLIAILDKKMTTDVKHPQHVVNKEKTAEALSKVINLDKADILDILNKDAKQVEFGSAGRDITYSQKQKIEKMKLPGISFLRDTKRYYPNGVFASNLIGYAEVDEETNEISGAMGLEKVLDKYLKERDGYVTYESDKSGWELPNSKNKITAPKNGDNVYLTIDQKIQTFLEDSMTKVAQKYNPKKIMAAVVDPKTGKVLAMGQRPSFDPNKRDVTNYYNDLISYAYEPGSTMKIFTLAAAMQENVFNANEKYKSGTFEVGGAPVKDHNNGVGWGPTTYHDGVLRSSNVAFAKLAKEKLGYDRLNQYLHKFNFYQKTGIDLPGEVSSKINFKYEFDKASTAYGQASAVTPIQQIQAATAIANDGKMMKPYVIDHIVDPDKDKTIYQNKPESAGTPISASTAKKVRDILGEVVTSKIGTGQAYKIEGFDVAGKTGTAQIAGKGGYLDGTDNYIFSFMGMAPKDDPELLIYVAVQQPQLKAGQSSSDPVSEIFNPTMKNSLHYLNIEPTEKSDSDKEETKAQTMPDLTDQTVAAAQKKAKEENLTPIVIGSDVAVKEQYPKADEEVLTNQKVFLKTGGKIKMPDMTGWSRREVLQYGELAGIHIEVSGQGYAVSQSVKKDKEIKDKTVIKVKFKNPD
Assay: SPR; PBP2B covalently bound to ampicillin immobilised on the chip; BsMltG injected as analyte, 0 to 500 nM; 25 C; 10 mM Tris/Maleate, 150 mM NaCl, 0.05% Triton X-100, pH 7.5; response at equilibrium fitted to one site saturation; three independent experiments
Details: both partners purified

Kd: 128 ± 28 nM
B1: BsMltG (enzyme, Bacillus subtilis, UniProt O34758 1-360, looked up)
chain: MYINQQKKSFFNKKRIILSSIVVLFLIIGGAFLYGKSLLEPVEKDSKTTVNINIPSGSSVSAIASILKKNDVIKSEKAFQYYVKYKGASGFQAGFYHLNKGMDLDAIIQKLTSGATGYAFQITVTEGAQLTQIAAAIADETKYSKKQVIAKLDDETFINQLKKEFPDTVTNDVFNKNIKHPLEGYLFPATYPFNDPDTSLEDIIKAMIKQTNSYVETYKSEMKKNKVSVHKLLTMASLIEEEATEKADRHKIASVFYNRLKKKMPLQTDPTVLYAAGKHKDRVLYKDLEIDSPYNTYKNTGLTPGPIANAGMSSWEAALHPDKTDYLYFLAKSNGEVVFTKTLKEHNKAKEKYISSKNEK
notes: Named without 'His-' in the SPR and activity assays; also called YrrL; MltG from Bacillus subtilis; source: E. coli BL21 (DE3), purified from membranes (Ni-NTA, thrombin, HiTrap SP ion exchange)
